{
  "source": "patent US20140220596A1",
  "about": "(MEDICINAL BIOCONVERGENCE RESEARCH CENTER, published 2014)",
  "molecules": {"B1": {"name": "GST-fused GRS fragment F4 (C-terminal anticodon-binding domain, 175 amino acids) (other, not shown: a dimerising Fc or GST; small tags and cut ends)", "chain": "LYVEEVVPNVIEPSFGLGRIMYTVFEHTFHVREGDEQRTFFSFPAVVAPFKCSVLPLSQNQEFMPFVKELSEALTRHGVSHKVDDSSGSIGRRYARTDEIGVAFGVTIDFDTVNKTPHTATLRDRDSMRQIRAEISELPSIVQDLANGNITWADVEARYPLFEGQETGKKETIEE", "notes": "also called ABD; GST-GRS F4"}, "B2": {"name": "Fc-fused soluble cadherin-2 (extracellular domain of CDH2 fused to the Fc fragment of human IgG1) (Fc fusion, UniProt P19022 160-724, looked up)", "chain": "DWVIPPINLPENSRGPFPQELVRIRSDRDKNLSLRYSVTGPGADQPPTGIFIINPISGQLSVTKPLDREQIARFHLRAHAVDINGNQVENPIDIVINVIDMNDNRPEFLHQVWNGTVPEGSKPGTYVMTVTAIDADDPNALNGMLRYRIVSQAPSTPSPNMFTINNETGDIITVAAGLDREKVQQYTLIIQATDMEGNPTYGLSNTATAVITVTDVNDNPPEFTAMTFYGEVPENRVDIIVANLTVTDKDQPHTPAWNAVYRISGGDPTGRFAIQTDPNSNDGLVTVVKPIDFETNRMFVLTVAAENQVPLAKGIQHPPQSTATVSVTVIDVNENPYFAPNPKIIRQEEGLHAGTMLTTFTAQDPDRYMQQNIRYTKLSDPANWLKIDPVNGQITTIAVLDRESPNVKNNIYNATFLASDNGIPPMSGTGTLQIYLLDINDNAPQVLPQEAETCETPDPNSINITALDYDIDPNAGPFAFDLPLSPVTIKRNWTITRLNGDFAQLNLKIKFLEAGIYEVPIIITDSGNPPKSNISILRVKVCQCDSNGDCTDVDRIVGAGLGTGA", "notes": "extracellular domain; also called Fc-CDH2; not shown: Fc fragment of human IgG1"}, "B3": {"name": "Fc-fused soluble cadherin-6 (extracellular domain of CDH6 fused to the Fc fragment of human IgG1) (Fc fusion)", "chain": "SWMWNQFFLLEEYTGSDYQYVGKLHSDQDRGDGSLKYILSGDGAGDLFIINENTGDIQATKRLDREEKPVYILRAQAINRRTGRPVEPESEFIIKIHDINDNEPIFTKEVYTATVPEMSDVGTFVVQVTATDADDPTYGNSAKVVYSILQGQPYFSVESETGIIKTALLNMDRENREQYQVVIQAKDMGGQMGGLSGTTTVNITLTDVNDNPPRFPQSTYQFKTPESSPPGTPIGRIKASDADVGENAEIEYSITDGEGLDMFDVITDQETQEGIITVKKLLDFEKKKVYTLKVEASNPYVEPRFLYLGPFKDSATVRIVVEDVDEPPVFSKLAYILQIREDAQINTTIGSVTAQDPDAARNPVKYSVDRHTDMDRIFNIDSGNGSIFTSKLLDRETLLWHNITVIATEINNPKQSSRVPLYIKVLDVNDNAPEFAEFYETFVCEKAKADQLIQTLHAVDKDDPYSGHQFSFSLAPEAASGSNFTIQDNKDNTAGILTRKNGYNRHEMSTYLLPVVISDNDYPVQSSTGTVTVRVCACDHHGNMQSCHAEALIHPTGLSTGA", "notes": "also called Fc-CDH6; Fc-fused CDH6; not shown: Fc fragment of human IgG1"}},
  "key": {"[1]": {"molecular_target": "Fc-fused soluble cadherin-18 (extracellular domain of CDH18 fused to the Fc fragment of human IgG1) (human) (UniProt Q13634)", "assay": "SPR (ProteOn XPR36), Fc-cadherin amine-coupled to GLC chip, GRS as analyte, Langmuir 1:1 model"}, "[2]": {"molecular_target": "B3", "assay": "GST pull-down with GSH-sepharose, immunoblot for CDH6", "method": "(A) A panel of Fc-fused soluble cadherin family proteins was bound to His-tagged GRS or to BSA-coated plates, and complexes were detected with the IgG1 Fc-HRP (Thermo) reagent. (B) To confirm the binding between cadherins and GRS, Fc-CDH2, 6 and 18 were incubated with His-GRS. Fc-CDHs were precipitated with protein A/G agarose and co-precipitated GRS was determined by immunoblotting. (C) To calculate the equilibrium dissociation constant (IQ), immobilized Fc-fused (to gold chips) cadherins were incubated with GRS (31.25 nM˜1 uM). Binding of GRS to CDH6 was determined by surface plasmon resonance and expressed as resonance units (RU). (D) To confirm the binding between CDH6 and GRS domain peptides, Fc-CDH6 was incubated with different domains (F1, 2, 3 and 4) of GRS that were expressed as the GST fusion proteins. GST-GRS proteins were precipitated with GSH-sepharose beads and co-precipitated CDH6 was determined by immunoblotting. (E) Five difference cancers cells were determined for the expression of CDH6 by immunoblotting. (F) HCT116 cells were transfected with non-specific siRNA controls (si-con) or two differently designed siRNAs targeting CDH6 (#1 and #2), treated with biotinylated GRS (15 nM), and the binding of GRS was analyzed by immunoblotting. (G) HCT116 cells were transfected with si-con and si-CDH6 as described above, and cell binding of GRS was measured by FACS analysis. […]"}, "[3]": {"molecular_target": "T1, His-tagged recombinant human glycyl-tRNA synthetase (GRS), 685 amino acids (human, UniProt P41250 55-739)", "T1 construct": "Expressed in E. coli; also called His-GRS; his-tagged GRS; not shown: His tag from vector pET-28a (EcoRI/XhoI)", "T1 sequence": "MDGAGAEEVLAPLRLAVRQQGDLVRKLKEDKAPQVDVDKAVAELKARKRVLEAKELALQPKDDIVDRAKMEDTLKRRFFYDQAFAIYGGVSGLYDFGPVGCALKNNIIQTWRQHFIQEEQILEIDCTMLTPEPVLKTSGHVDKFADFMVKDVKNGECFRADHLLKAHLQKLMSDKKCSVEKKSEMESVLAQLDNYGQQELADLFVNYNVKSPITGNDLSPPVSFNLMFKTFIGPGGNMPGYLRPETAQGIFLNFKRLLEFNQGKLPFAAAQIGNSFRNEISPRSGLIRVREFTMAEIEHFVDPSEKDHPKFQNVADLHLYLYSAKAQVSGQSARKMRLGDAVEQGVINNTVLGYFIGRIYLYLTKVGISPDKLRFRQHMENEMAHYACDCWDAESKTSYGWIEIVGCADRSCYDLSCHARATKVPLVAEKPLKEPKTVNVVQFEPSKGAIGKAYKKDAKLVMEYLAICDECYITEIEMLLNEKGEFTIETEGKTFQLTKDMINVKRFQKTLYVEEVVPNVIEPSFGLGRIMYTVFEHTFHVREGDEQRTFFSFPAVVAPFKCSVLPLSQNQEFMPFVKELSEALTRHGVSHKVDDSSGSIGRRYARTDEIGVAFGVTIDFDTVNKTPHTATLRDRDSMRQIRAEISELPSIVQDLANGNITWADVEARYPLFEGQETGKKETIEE", "assay": "ELISA: plate coated with His-GRS or BSA, Fc-fused cadherin added, detected with anti-human IgG1 Fc-HRP; axis OD 490nm", "method": "(A) A panel of Fc-fused soluble cadherin family proteins was bound to His-tagged GRS or to BSA-coated plates, and complexes were detected with the IgG1 Fc-HRP (Thermo) reagent. (B) To confirm the binding between cadherins and GRS, Fc-CDH2, 6 and 18 were incubated with His-GRS. Fc-CDHs were precipitated with protein A/G agarose and co-precipitated GRS was determined by immunoblotting. (C) To calculate the equilibrium dissociation constant (IQ), immobilized Fc-fused (to gold chips) cadherins were incubated with GRS (31.25 nM˜1 uM). Binding of GRS to CDH6 was determined by surface plasmon resonance and expressed as resonance units (RU). (D) To confirm the binding between CDH6 and GRS domain peptides, Fc-CDH6 was incubated with different domains (F1, 2, 3 and 4) of GRS that were expressed as the GST fusion proteins. GST-GRS proteins were precipitated with GSH-sepharose beads and co-precipitated CDH6 was determined by immunoblotting. (E) Five difference cancers cells were determined for the expression of CDH6 by immunoblotting. (F) HCT116 cells were transfected with non-specific siRNA controls (si-con) or two differently designed siRNAs targeting CDH6 (#1 and #2), treated with biotinylated GRS (15 nM), and the binding of GRS was analyzed by immunoblotting. (G) HCT116 cells were transfected with si-con and si-CDH6 as described above, and cell binding of GRS was measured by FACS analysis. (H) HCT116 cells were incubated with His-GRS (150 nM). To neutralize the effects of GRS, Fc-fused CDH6 (300 nM) was added and the cell viability was determined by the MTT assay. Error bars represent standard deviation. (I) The binding between CDH6 and GRS domain peptides was again confirmed by ELISA assay.\nTo identifying the receptor of GRS, a Maxisorp plate (Nunc, Rochester, N.Y.) was used for an ELISA detection. The plate were coated with purified his-tagged GRS (1 ug/ml) or BSA (1 ug/ml) in phosphate buffer saline and then blocked (PBS, 4% non-fat milk). Fc-fusion cadherin family proteins (1 ug/ml) were added to the plate and after washing with PBST (0.05% Tween20), the plates were incubated with anti-human IgG1 Fc-HRP (Thermo, Waltham, Mass.). […]"}, "[4]": {"molecular_target": "T1, His-tagged recombinant human …", "assay": "SPR (ProteOn XPR36), Fc-cadherin amine-coupled to GLC chip, GRS as analyte, Langmuir 1:1 model", "method": "Binding of GRS to CDH6 was determined by surface plasmon resonance and expressed as resonance units (RU). (D) To confirm the binding between CDH6 and GRS domain peptides, Fc-CDH6 was incubated with different domains (F1, 2, 3 and 4) of GRS that were expressed as the GST fusion proteins. GST-GRS proteins were precipitated with GSH-sepharose beads and co-precipitated CDH6 was determined by immunoblotting. (E) Five difference cancers cells were determined for the expression of CDH6 by immunoblotting. (F) HCT116 cells were transfected with non-specific siRNA controls (si-con) or two differently designed siRNAs targeting CDH6 (#1 and #2), treated with biotinylated GRS (15 nM), and the binding of GRS was analyzed by immunoblotting. (G) HCT116 cells were transfected with si-con and si-CDH6 as described above, and cell binding of GRS was measured by FACS analysis. […] To neutralize the effects of GRS, Fc-fused CDH6 (300 nM) was added and the cell viability was determined by the MTT assay. […]\nBinding of GRS to the cadherin-Fc fusion proteins was determined by the SPR technique using a ProteOn XPR36 Protein Interaction Array System (BioRad). […] The binding was determined by the change in resonance units (RU), where one resonance unit is defined as 1 pg/mm². The Sensogram was processed by subtracting the binding response recorded from the control surface. […]"}},
  "data": [
    {"molecule": "His-tagged recombinant human glycyl-tRNA synthetase (GRS), 685 amino acids (from UniProt P41250 55-739) (enzyme)", "values": [
      {"measurement": "Kd", "setting": "[1]", "value": 1.25, "unit": "nM"}
    ]},
    {"molecule": "B1", "values": [
      {"measurement": "binding result", "setting": "[2]", "value": "binds"}
    ]},
    {"molecule": "B2", "values": [
      {"measurement": "binding result", "setting": "[3]", "value": "no binding (tested: 1 ug/ml (single concentration))"}
    ]},
    {"molecule": "B3", "values": [
      {"measurement": "Kd", "setting": "[4]", "value": 3.4, "unit": "nM"}
    ]}
  ]
}
